Test results as given in patent publication EP4480965A1, “TRANSFERRIN RECEPTOR-BINDING MOLECULES, CONJUGATES THEREOF AND THEIR USES TO PREVENT OR TREAT CNS DISEASES” (Vect-Horus, priority 2023, dated 2024).
One block for each binder: values may come before it.

What was measured:
[1] = biological target: mouse transferrin receptor fused to EGFP, expressed on CHO cells (mouse) (UniProt Q62351); assay: cell-based assay on mTfR, apparent Kd
[2] = biological target: murine TfR expressed by murine neuroblastoma Neuro-2a cells (mouse) (UniProt Q62351); assay: cell-based or functional assay
Chain of murine TfR expressed by murine neuroblastoma Neuro-2a cells (mouse) (Q62351 whole entry): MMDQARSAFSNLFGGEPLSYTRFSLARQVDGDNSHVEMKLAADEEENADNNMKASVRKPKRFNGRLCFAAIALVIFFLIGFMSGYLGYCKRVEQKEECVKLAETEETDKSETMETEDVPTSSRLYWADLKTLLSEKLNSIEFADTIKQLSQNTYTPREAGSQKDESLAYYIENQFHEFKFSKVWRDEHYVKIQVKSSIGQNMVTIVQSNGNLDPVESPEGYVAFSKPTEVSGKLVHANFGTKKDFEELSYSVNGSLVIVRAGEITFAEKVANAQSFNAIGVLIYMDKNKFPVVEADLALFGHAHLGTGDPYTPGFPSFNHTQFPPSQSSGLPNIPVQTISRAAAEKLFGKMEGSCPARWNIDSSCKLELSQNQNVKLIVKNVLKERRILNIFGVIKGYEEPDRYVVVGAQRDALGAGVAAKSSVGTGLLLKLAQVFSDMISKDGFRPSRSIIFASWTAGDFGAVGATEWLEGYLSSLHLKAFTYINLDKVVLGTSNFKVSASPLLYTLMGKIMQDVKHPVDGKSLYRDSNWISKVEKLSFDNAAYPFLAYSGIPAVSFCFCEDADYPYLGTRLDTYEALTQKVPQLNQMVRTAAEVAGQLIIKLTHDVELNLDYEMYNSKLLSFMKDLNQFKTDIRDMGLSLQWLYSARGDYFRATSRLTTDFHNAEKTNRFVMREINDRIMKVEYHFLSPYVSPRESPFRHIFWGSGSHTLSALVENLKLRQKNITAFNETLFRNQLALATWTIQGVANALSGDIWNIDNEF

Chain of mouse transferrin receptor fused to EGFP, expressed on CHO cells (mouse) (Q62351 whole entry, the tested form may be a part): as the sequence (Q62351 whole entry) above

Kd [1]: 2.8 nM
B1: B8h1-NT(8-13) (protein, part only; not given: nothing essential, part only)
chain, part: EVQLVESGGGVVQPGGSLRLSCAASGEIFSINFMRWYRQAPGKGLEWVAGFTRDGSTNYPDSVKGRFTISRDNAKNTVYLQMNSLRPEDTAVYYCYMLDTWGQGTQVTVSSHHHHHHGGGGSGGGGS

mean IC50 of mSOD1 mRNA downregulation, free uptake on Neuro-2a cells [2]: 8.7 nM
B2: C5-hFc-siSOD1m-5'VP (protein, part only; not given: Fc knob and hole arms, siRNA, part only)
chain, part: EVQLVESGGGVVQPGGSLKLSCVASGTDFSINFIRWYRQAPGKQREFVAGFTATGNTNYADSMKGRFTISRDNTKNAVYLQIDSLKPEDTAVYYCYMLDKWGQGTQVTVSSAAAEQKLISEEDLNGAAHHHHHHGS
